B1: VET106 VET217 anti-canine lymphoma antibody variant (mab 231 variable domains, canine lambda constant) (antibody)
light: DIQMNQSPSSLSASLGDTITITCHASQNINVWLSWYQQKPGNIPKLLIYKASNLHTGVPSRFSGSGSGTGFTLTISSLQPEDIATYYCQQGQSYPLTFGGGTKLEIKGQPKASPSVTLFPPSSEELGANKATLVCLISDFYPSGVTVAWKADGSPITQGVETTKPSKQSNNKYAASSYLSLTPDKWKSHSSFSCLVTHEGSTVEKKVAPAECS
heavy: EVKLVESGGGLVQPGGSLKLSCATSGFTFSDYYMYWVRQTPEKRLEWVAYISNGGGSTYYPDTVKGRFTISRDNAKNTLYLQMSRLKSEDTAMYYCARHGGYYAMDYWGQGTLVTVSSASTTAPSVFPLAPSCGSTSGSTVALACLVSGYFPEPVTVSWNSGSLTSGVHTFPSVLQSSGLYSLSSMVTVPSSRWPSETFTCNVAHPASKTKVDKPVPKRENGRVPRPPDCPKCPAPEMLGGPSVFIFPPKPKDTLLIARTPEVTCVVVDLDPEDPEVQISWFVDGKQMQTAKTQPREEQFNGTYRVVSVLPIGHQDWLKGKQFTCKVNNKALPSPIERTISKARGQAHQPSVYVLPPSREELSKNTVSLTCLIKDFFPPDIDVEWQSNGQQEPESKYRTTPPQLDEDGSYFLYSKLSVDKSRWQRGDTFICAVMHEALHNHYTQKSLSHSPGK
B2: VET107 VET217 anti-canine lymphoma antibody variant (mab 231 variable domains, canine kappa constant) (antibody)
light: DIQMNQSPSSLSASLGDTITITCHASQNINVWLSWYQQKPGNIPKLLIYKASNLHTGVPSRFSGSGSGTGFTLTISSLQPEDIATYYCQQGQSYPLTFGGGTKLEIKNDAQPAVYLFQPSPDQLHTGSASVVCLLNSFYPKDINVKWKVDGVIQDTGIQESVTEQDKDSTYSLSSTLTMSSTEYLSHELYSCEITHKSLPSTLIKSFQRSECQRVD
heavy: EVKLVESGGGLVQPGGSLKLSCATSGFTFSDYYMYWVRQTPEKRLEWVAYISNGGGSTYYPDTVKGRFTISRDNAKNTLYLQMSRLKSEDTAMYYCARHGGYYAMDYWGQGTLVTVSSASTTAPSVFPLAPSCGSTSGSTVALACLVSGYFPEPVTVSWNSGSLTSGVHTFPSVLQSSGLYSLSSMVTVPSSRWPSETFTCNVAHPASKTKVDKPVPKRENGRVPRPPDCPKCPAPEMLGGPSVFIFPPKPKDTLLIARTPEVTCVVVDLDPEDPEVQISWFVDGKQMQTAKTQPREEQFNGTYRVVSVLPIGHQDWLKGKQFTCKVNNKALPSPIERTISKARGQAHQPSVYVLPPSREELSKNTVSLTCLIKDFFPPDIDVEWQSNGQQEPESKYRTTPPQLDEDGSYFLYSKLSVDKSRWQRGDTFICAVMHEALHNHYTQKSLSHSPGK
B3: VET114 VET224 antibody variant (anti-CD52, canine FR4 in both chains) (antibody)
light: DIKMTQSPSFLSASVGDRVTLNCKASQNIDKYLNWYQQKLGESPKLLIYNTNNLQTGIPSRFSGSGSGTDFTLTISSLQPEDVATYFCLQHISRPRTFGGGTHLTVLGQPKASPSVTLFPPSSEELGANKATLVCLISDFYPSGVTVAWKADGSPITQGVETTKPSKQSNNKYAASSYLSLTPDKWKSHSSFSCLVTHEGSTVEKKVAPAECS
heavy: EVKLLESGGGLVQPGGSMRLSCAGSGFTFTDFYMNWIRQPAGKAPEWLGFIRDKAKGYTTEYNPSVKGRFTISRDNTQNMLYLQMNTLRAEDTATYYCAREGHTAAPFDYWGQGTLVTVSSASTTAPSVFPLAPSCGSTSGSTVALACLVSGYFPEPVTVSWNSGSLTSGVHTFPSVLQSSGLYSLSSMVTVPSSRWPSETFTCNVAHPASKTKVDKPVPKRENGRVPRPPDCPKCPAPEMLGGPSVFIFPPKPKDTLLIARTPEVTCVVVDLDPEDPEVQISWFVDGKQMQTAKTQPREEQFNGTYRVVSVLPIGHQDWLKGKQFTCKVNNKALPSPIERTISKARGQAHQPSVYVLPPSREELSKNTVSLTCLIKDFFPPDIDVEWQSNGQQEPESKYRTTPPQLDEDGSYFLYSKLSVDKSRWQRGDTFICAVMHEALHNHYTQKSLSHSPGK
notes: Constant domains are added as separate pieces because the printed entries are variable domains only
B4: VET112 VET223 antibody variant (anti-CD52, canine FR1 and FR4 in both chains) (antibody)
light: QSVLTQPASVSGSLGQRVTISCKASQNIDKYLNWYQQKLGESPKLLIYNTNNLQTGIPSRFSGSGSGTDFTLTISSLQPEDVATYFCLQHISRPRTFGGGTHLTVGQPKASPSVTLFPPSSEELGANKATLVCLISDFYPSGVTVAWKADGSPITQGVETTKPSKQSNNKYAASSYLSLTPDKWKSHSSFSCLVTHEGSTVEKKVAPAECS
heavy: EVQLVESGGDLVKPGGSLRLSCAGSGFTFTDFYMNWIRQPAGKAPEWLGFIRDKAKGYTTEYNPSVKGRFTISRDNTQNMLYLQMNTLRAEDTATYYCAREGHTAAPFDYWGQGTLVTVSSASTTAPSVFPLAPSCGSTSGSTVALACLVSGYFPEPVTVSWNSGSLTSGVHTFPSVLQSSGLYSLSSMVTVPSSRWPSETFTCNVAHPASKTKVDKPVPKRENGRVPRPPDCPKCPAPEMLGGPSVFIFPPKPKDTLLIARTPEVTCVVVDLDPEDPEVQISWFVDGKQMQTAKTQPREEQFNGTYRVVSVLPIGHQDWLKGKQFTCKVNNKALPSPIERTISKARGQAHQPSVYVLPPSREELSKNTVSLTCLIKDFFPPDIDVEWQSNGQQEPESKYRTTPPQLDEDGSYFLYSKLSVDKSRWQRGDTFICAVMHEALHNHYTQKSLSHSPGK
notes: as for B3
B5: VET114 VET223 antibody variant (anti-CD52) (antibody)
light: DIKMTQSPSFLSASVGDRVTLNCKASQNIDKYLNWYQQKLGESPKLLIYNTNNLQTGIPSRFSGSGSGTDFTLTISSLQPEDVATYFCLQHISRPRTFGGGTHLTVLGQPKASPSVTLFPPSSEELGANKATLVCLISDFYPSGVTVAWKADGSPITQGVETTKPSKQSNNKYAASSYLSLTPDKWKSHSSFSCLVTHEGSTVEKKVAPAECS
heavy: EVQLVESGGDLVKPGGSLRLSCAGSGFTFTDFYMNWIRQPAGKAPEWLGFIRDKAKGYTTEYNPSVKGRFTISRDNTQNMLYLQMNTLRAEDTATYYCAREGHTAAPFDYWGQGTLVTVSSASTTAPSVFPLAPSCGSTSGSTVALACLVSGYFPEPVTVSWNSGSLTSGVHTFPSVLQSSGLYSLSSMVTVPSSRWPSETFTCNVAHPASKTKVDKPVPKRENGRVPRPPDCPKCPAPEMLGGPSVFIFPPKPKDTLLIARTPEVTCVVVDLDPEDPEVQISWFVDGKQMQTAKTQPREEQFNGTYRVVSVLPIGHQDWLKGKQFTCKVNNKALPSPIERTISKARGQAHQPSVYVLPPSREELSKNTVSLTCLIKDFFPPDIDVEWQSNGQQEPESKYRTTPPQLDEDGSYFLYSKLSVDKSRWQRGDTFICAVMHEALHNHYTQKSLSHSPGK
notes: as for B3
B6: VET111 VET222 chimeric antibody (rat anti-human CD52 variable domains on canine constant domains) (antibody)
light: DIKMTQSPSFLSASVGDRVTLNCKASQNIDKYLNWYQQKLGESPKLLIYNTNNLQTGIPSRFSGSGSGTDFTLTISSLQPEDVATYFCLQHISRPRTFGTGTKLELKGQPKASPSVTLFPPSSEELGANKATLVCLISDFYPSGVTVAWKADGSPITQGVETTKPSKQSNNKYAASSYLSLTPDKWKSHSSFSCLVTHEGSTVEKKVAPAECS
heavy: EVKLLESGGGLVQPGGSMRLSCAGSGFTFTDFYMNWIRQPAGKAPEWLGFIRDKAKGYTTEYNPSVKGRFTISRDNTQNMLYLQMNTLRAEDTATYYCAREGHTAAPFDYWGQGVMVTVSSASTTAPSVFPLAPSCGSTSGSTVALACLVSGYFPEPVTVSWNSGSLTSGVHTFPSVLQSSGLYSLSSMVTVPSSRWPSETFTCNVAHPASKTKVDKPVPKRENGRVPRPPDCPKCPAPEMLGGPSVFIFPPKPKDTLLIARTPEVTCVVVDLDPEDPEVQISWFVDGKQMQTAKTQPREEQFNGTYRVVSVLPIGHQDWLKGKQFTCKVNNKALPSPIERTISKARGQAHQPSVYVLPPSREELSKNTVSLTCLIKDFFPPDIDVEWQSNGQQEPESKYRTTPPQLDEDGSYFLYSKLSVDKSRWQRGDTFICAVMHEALHNHYTQKSLSHSPGK
notes: Expressed in 293F cells and used as supernatant or protein A purified
B7: VET112 VET224 antibody variant (anti-CD52) (antibody)
light: QSVLTQPASVSGSLGQRVTISCKASQNIDKYLNWYQQKLGESPKLLIYNTNNLQTGIPSRFSGSGSGTDFTLTISSLQPEDVATYFCLQHISRPRTFGGGTHLTVGQPKASPSVTLFPPSSEELGANKATLVCLISDFYPSGVTVAWKADGSPITQGVETTKPSKQSNNKYAASSYLSLTPDKWKSHSSFSCLVTHEGSTVEKKVAPAECS
heavy: EVKLLESGGGLVQPGGSMRLSCAGSGFTFTDFYMNWIRQPAGKAPEWLGFIRDKAKGYTTEYNPSVKGRFTISRDNTQNMLYLQMNTLRAEDTATYYCAREGHTAAPFDYWGQGTLVTVSSASTTAPSVFPLAPSCGSTSGSTVALACLVSGYFPEPVTVSWNSGSLTSGVHTFPSVLQSSGLYSLSSMVTVPSSRWPSETFTCNVAHPASKTKVDKPVPKRENGRVPRPPDCPKCPAPEMLGGPSVFIFPPKPKDTLLIARTPEVTCVVVDLDPEDPEVQISWFVDGKQMQTAKTQPREEQFNGTYRVVSVLPIGHQDWLKGKQFTCKVNNKALPSPIERTISKARGQAHQPSVYVLPPSREELSKNTVSLTCLIKDFFPPDIDVEWQSNGQQEPESKYRTTPPQLDEDGSYFLYSKLSVDKSRWQRGDTFICAVMHEALHNHYTQKSLSHSPGK
notes: as for B3

The text below walks through data of patent publication US20130344077A1 (VET THERAPEUTICS, published 2013).

The first experiment deals with target antigen of mab 231 on canine lymphoma cells (canine). Description: FACS on canine lymphoma cells positive for the mab 231 antigen, FITC anti-dog IgG secondary.
In turn, B1 registered a Binding (%) of 30.3%.

B2 gave a Binding (%) of 20.8%.

Another experiment has as its target T1, human CD52 on human T-cell lymphoma HUT-78 cells (human, UniProt P31358 25-36).
T1 construct: whole, on cells; also called CAMPATH-1 antigen; CD52 positive lymphoma cells
T1 chain (looked up): GQNDTSQTSSPS
Put plainly: FACS on HUT-78 cells, about 2 ug primary antibody, FITC goat anti-dog IgG secondary. The protocol:
The binding of the antibody variants of the present invention was assessed using a fluorescence-activated cell sorter (FACS). In the present example, the antibody variants were incubated with the CD52 positive cells and the amount of bound antibody was assessed following incubation with a fluorescent-labeled reporter reagent. The reporter was thereafter measured by FACS.
Briefly, for each assay, one million cells of the human T-cell lymphoma HUT-78 cells were resuspended in FACS buffer (PBS+2% FBS). About 2 ug of the primary antibody were added to the cells and the samples were incubated at 4° C. for 1 hour. The primary antibody was provided as supernatants from transfected cells with recombinant antibody constructs or from purified antibody preparation. The rat anti-human CD52 mAb (Serotec) was added to the cells as a control. One ml of FACS buffer was added and cells were spin down for 3 min at 800×g in Eppendorf microcentrifuge. The cells were washed with 1 ml FACS buffer and spin down again. The secondary antibodies such as fluorescein-isothiocynate (FITC) conjugated goat anti-rat (Jackson ImmunoResearch), or the FITC-conjugated goat anti-dog IgG (H+L) (Bethyl Laboratories) were added in 100 μl of FACS buffer supplemented with 1% BSA to appropriate tubes and the tubes were incubated at 4° C. for 30 minutes. The wash steps were repeated. The cells were then resuspended in 500 μl FACS buffer and transferred into 12×75 mm polystyrene test tubes. The cells were analyzed by FACS with a FacScan cytometer using the CellQuest software (Becton-Dickenson). Several controls were utilized to determine the background fluorescence: (i) one tube of cells was incubated with the FITC-conjugated secondary antibody without the primary antibody, (ii) one tube of cells was incubated with PBS only, and (iii) one tube was incubated with the primary antibody without the FITC-conjugated secondary antibody.
On to B3, for which the “Binding (%)” value was found to be 47.8%.

As to B4, the “Binding (%)” value turned out to be 24.4%.

In the case of B5, the “Binding (%)” value amounted to 40.1%.

Take B6: the “Binding (%)” value came out at 51.4%.

Consider B7, for which the “Binding (%)” value is 30.6%.
